The supplement of paper PMC9112550, “Optimization of the antimicrobial peptide Bac7 by deep mutational scanning” (BMC Biology, 2022)

Tested on: Escherichia coli TOP10
Assay: shrunken log2 fold change of peptide-encoding DNA abundance (4.5 h post-induction vs induction); higher = less antimicrobial activity (less host growth inhibition)
Conditions: time post-induction: 4.5 h; library: site-saturation at positions 5, 18, 19, 20
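Further: peptides expressed intracellularly from a pBAD plasmid library in pooled LB shake-flask culture, induced with 0.3% L-arabinose, DNA abundance read by NGS, three biological replicates, DESeq2 with apeglm shrinkage.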

Row | Sequence | shrunken log2 fold change
1 | RRIRFRPPRLPRPRPRPMKMPRP | -0.0224
2 | RRIRFRPPRLPRPRPRPMKQPRP | -0.0442
3 | RRIRFRPPRLPRPRPRPMLEPRP | 0.147
4 | RRIRFRPPRLPRPRPRPMLNPRP | -0.574
5 | RRIRFRPPRLPRPRPRPMMGPRP | -0.0671
6 | RRIRFRPPRLPRPRPRPMNHPRP | -0.327
7 | RRIRFRPPRLPRPRPRPMNNPRP | -0.501
8 | RRIRFRPPRLPRPRPRPMPFPRP | -0.0201
9 | RRIRFRPPRLPRPRPRPMQWPRP | -0.113
10 | RRIRFRPPRLPRPRPRPMTEPRP | -0.0907
11 | RRIRFRPPRLPRPRPRPMVCPRP | -0.0374
12 | RRIRFRPPRLPRPRPRPMVRPRP | 0.0406
13 | RRIRFRPPRLPRPRPRPNACPRP | -0.18
14 | RRIRFRPPRLPRPRPRPNDVPRP | 0.0386
15 | RRIRFRPPRLPRPRPRPNEYPRP | -0.16
16 | RRIRFRPPRLPRPRPRPNFDPRP | -0.181
17 | RRIRFRPPRLPRPRPRPNHAPRP | 0.0222
18 | RRIRFRPPRLPRPRPRPNIAPRP | -0.255
19 | RRIRFRPPRLPRPRPRPNIFPRP | -0.229
20 | RRIRFRPPRLPRPRPRPNIHPRP | -0.814
21 | RRIRFRPPRLPRPRPRPNIVPRP | -0.199
22 | RRIRFRPPRLPRPRPRPNMKPRP | 0.234
23 | RRIRFRPPRLPRPRPRPNNNPRP | -0.714
24 | RRIRFRPPRLPRPRPRPNPIPRP | -0.423
25 | RRIRFRPPRLPRPRPRPNQMPRP | -0.167

Row | Sequence | shrunken log2 fold change
26 | RRIRFRPPRLPRPRPRPNRVPRP | -0.0261
27 | RRIRFRPPRLPRPRPRPNSAPRP | -0.603
28 | RRIRFRPPRLPRPRPRPNTMPRP | -0.648
29 | RRIRFRPPRLPRPRPRPNTRPRP | -0.39
30 | RRIRFRPPRLPRPRPRPNVEPRP | 0.0199
31 | RRIRFRPPRLPRPRPRPNVNPRP | -0.375
32 | RRIRFRPPRLPRPRPRPNWPPRP | 0.333
33 | RRIRFRPPRLPRPRPRPNYHPRP | -0.758
34 | RRIRFRPPRLPRPRPRPPCRPRP | 0.172
35 | RRIRFRPPRLPRPRPRPPDYPRP | -0.026
36 | RRIRFRPPRLPRPRPRPPEGPRP | 0.996
37 | RRIRFRPPRLPRPRPRPPELPRP | 0.106
38 | RRIRFRPPRLPRPRPRPPFHPRP | -0.231
39 | RRIRFRPPRLPRPRPRPPGCPRP | 0.453
40 | RRIRFRPPRLPRPRPRPPGIPRP | 0.151
41 | RRIRFRPPRLPRPRPRPPGNPRP | 0.0667
42 | RRIRFRPPRLPRPRPRPPICPRP | 0.172
43 | RRIRFRPPRLPRPRPRPPISPRP | -0.239
44 | RRIRFRPPRLPRPRPRPPIYPRP | -0.416
45 | RRIRFRPPRLPRPRPRPPLLPRP | -0.0704
46 | RRIRFRPPRLPRPRPRPPLYPRP | -0.0579
47 | RRIRFRPPRLPRPRPRPPMCPRP | -0.0102
48 | RRIRFRPPRLPRPRPRPPMLPRP | 0.638
49 | RRIRFRPPRLPRPRPRPPNFPRP | -0.22
50 | RRIRFRPPRLPRPRPRPPNLPRP | -0.0642

Row | Sequence | shrunken log2 fold change
51 | RRIRFRPPRLPRPRPRPPPTPRP | 1.39
52 | RRIRFRPPRLPRPRPRPPRIPRP | 0.232
53 | RRIRFRPPRLPRPRPRPPRLPRP | 0.399
54 | RRIRFRPPRLPRPRPRPPRVPRP | 0.605
55 | RRIRFRPPRLPRPRPRPPSDPRP | 0.201
56 | RRIRFRPPRLPRPRPRPPTHPRP | 0.22
57 | RRIRFRPPRLPRPRPRPPWIPRP | 0.3
58 | RRIRFRPPRLPRPRPRPPWPPRP | 0.564
59 | RRIRFRPPRLPRPRPRPPYQPRP | -0.125
60 | RRIRFRPPRLPRPRPRPQCKPRP | -0.422
61 | RRIRFRPPRLPRPRPRPQEHPRP | -0.115
62 | RRIRFRPPRLPRPRPRPQEPPRP | 0.436
63 | RRIRFRPPRLPRPRPRPQETPRP | -0.0613
64 | RRIRFRPPRLPRPRPRPQHFPRP | 0.205
65 | RRIRFRPPRLPRPRPRPQHQPRP | -0.185
66 | RRIRFRPPRLPRPRPRPQIRPRP | -0.231
67 | RRIRFRPPRLPRPRPRPQKVPRP | -0.194
68 | RRIRFRPPRLPRPRPRPQLGPRP | 0.1
69 | RRIRFRPPRLPRPRPRPQMFPRP | -0.103
70 | RRIRFRPPRLPRPRPRPQMPPRP | -0.107
71 | RRIRFRPPRLPRPRPRPQMSPRP | -0.204
72 | RRIRFRPPRLPRPRPRPQNHPRP | -0.619
73 | RRIRFRPPRLPRPRPRPQQVPRP | 0.0179
74 | RRIRFRPPRLPRPRPRPQRIPRP | -0.695
75 | RRIRFRPPRLPRPRPRPQSFPRP | 0.00824
